Assay: yeast display, Sf9 membrane polyspecificity reagent, FACS + sequencing; frameworks hold sequencing errors
Procedure, shortened: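 A synthetic nanobody library was expressed on Saccharomyces cerevisiae BJ5465 by galactose induction for 36–48 hours. The library was stained for 1 hour at 4 °C with 10% biotinylated, detergent-solubilized Sf9 membrane reagent and enriched with streptavidin microbeads before FACS. Low and high (top ~1%) gates were set on anti-HA fluorescence for expression and streptavidin fluorescence for reagent binding, and each polyreactivity label reflects the gate of origin.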

| Sequence | polyreactivity (PSR sort gate) |
| --- | --- |
| QVQLVESGGGLVQAGGSLRLSCAASGRTFRYYAMGWYRQAPGKERELVAAITGSGGSTYYADSVKGRFTISRDTAKNTVYLQMNSLKPEDTAVYYCATRWALRWRGGYWGQGTQVTVSS | high polyreactivity |
| QVQLVESGGGLVQAGGSLRLSCAASGRTFRYYAMGWYRQAPGKERELVAAITVTVTSTFYADSVKGRFTISRDNAKNTVYLQMNSLKPEDTAVYYCAKVDRQYPGQYYYWGQGTQVTVSS | low polyreactivity |
| QVQLVESGGGLVQAGGSLRLSCAASGRTFRYYAMGWYRQAPGKERELVAAITWSVGSTYYADSVKGRFTISRDNAKNTVYLQMNSRKPEDTAVYYCAADRVRGGYRTYYWVVHFDYWGQGTQVTVSS | high polyreactivity |
| QVQLVESGGGLVQAGGSLRLSCAASGRTFRYYAMGWYRQAPGKERELVARISWRGDSTRYADSVKGRFTISRDNAKNTVYVQMNSLKPEDTAVYYCAADTRFLVGPDKYGYWGQGTQVTESS | high polyreactivity |
| QVQLVESGGGLVQAGGSLRLSCAASGRTFRYYAMGWYRQAPGKERELVATSTGSGGSTYYADSVKGRFTISRDNSKNTVYLQMNSLKPEDTAVYYCNARKVRYPYRWYDYWGQGTQVTVSS | high polyreactivity |
| QVQLVESGGGLVQAGGSLRLSCAASGRTFRYYAMGWYRQARGKERELVAAISKTGGSTYYADSVKGRFTISRDNAKNTVYLQMNSQKPEDTAVYYCAAQSGWGYSTFYYWGQGTQVTVSS | high polyreactivity |
| QVQLVESGGGLVQAGGSLRLSCAASGRTFRYYSMGWYRQAPGKERELVAAITGSGARTYYADSVKGRFTISRDNAKNTVYLQMNSLKPEDTAVYYCAADSLFYDDRYDYWGQGTQVTVSS | high polyreactivity |
| QVQLVESGGGLVQAGGSLRLSCAASGRTFRYYTMGWYRQAPGKEREFVAAISSTGGTYYADSVKGRFTISRDNAKNTVYLLMNSLNPEDTAVYYCAATFIQVVVNVQLYDYDYWGQGTQVTVSS | low polyreactivity |
| QVQLVESGGGLVQAGGSLRLSCAASGRTFRYYTMGWYRQAPGKEREFVAAISSTGGTYYADSVKGRFTISRDNAKNTVYLQMNRLKPEDSAVYYCAATFIQVVVNVQLYDYDYWGQGTQVTVSS | low polyreactivity |
| QVQLVESGGGLVQAGGSLRLSCAASGRTFRYYTMGWYRQAPGKERELVAAITRNGGRTYYADSVKGRFTISRDNAKNTVDLQMNSLKPEDPAVYYCAPGTYDGGYHYDYWGQGTQVTVSS | high polyreactivity |
| QVQLVESGGGLVQAGGSLRLSCAASGRTFRYYTMGWYRQAPGKERQFVAAISSTGGTYYADSVKGRFTISRDNAKNTVYLQMNSLKPADTAVYYCAATFIQVVVNVQLYDYDYWGQGTQVTVSS | low polyreactivity |
| QVQLVESGGGLVQAGGSLRLSCAASGRTFRYYVMGWYRPAPGKERELVASITSNGDSTYYADSVKGRFTISRDNAKNTVFLQWKSLKPEDTAVDYCAVRWRDYRGSYRGFEYWGQGSQVTVSS | high polyreactivity |
| QVQLVESGGGLVQAGGSLRLSCAASGRTFRYYVMGWYRQAPGKERELVAGISGSGGNTYYADSVKGRFTISRDNAKNTVYLQMNSLKPEDTAVYYCAARQRGSVGVPYNSWGQGTQVTVSW | high polyreactivity |
| QVQLVESGGGLVQAGGSLRLSCAASGRTFSANAMGWYRQAPGKDRELVAANRRTGGRTYYADSVKGRFTISRDNAKNTDYLQMNSLKPEDTAVYYCKAVNKPYTREYGYDYWGQGTQGTVSS | high polyreactivity |
| QVQLVESGGGLVQAGGSLRLSCAASGRTFSANAMGWYRQAPGKERELVATISSGGRTNYADSVKGRFTISRDNAKNTVYLQMNSLKPEDTAVYYCAKRGPYNRWYGRYDYWGQGTQVTVSS | low polyreactivity |
| QVQLVESGGGLVQAGGSLRLSCAASGRTFSAYAMGWYRQAPGKEMELVARITSVDSTNYADSVKGRFTISRDNAKNTVYLQMNSLKPEDTAVYYCNATFGYPFVDYDDYWGQGTQVTVSS | low polyreactivity |
| QVQLVESGGGLVQAGGSLRLSCAASGRTFSAYAMGWYRQAPGKERELVARITSVDSTNYADSVKGRFTISRDNAKNSVYLQMNSLKPEDTAVYDCNATFGYPFVDYDDYWGQGTQVTVSS | low polyreactivity |
| QVQLVESGGGLVQAGGSLRLSCAASGRTFSENAMGWYRQAPGKERELVAAISGSGGRTYYADSVKGRFTISRDNAKNTVYLQMNILKPEDTAVYFCGKVTRYGSTYDYWGQGTQVTVSS | high polyreactivity |
| QVQLVESGGGLVQAGGSLRLSCAASGRTFSFYAMGWYRQAPGKERELVAAISSGGGRTYYADSVKGRFTISRDNAKNTVYLQMHSLKPEDTAVYYCAAYRAYSGEFDYWGQGTQVTVSS | high polyreactivity |
| QVQLVESGGGLVQAGGSLRLSCAASGRTFSGNAMGWYRQAPGKERELVAAITSGSSTYYADSVKGRFTISRDNAKNTVYLQMNSLKPEDTAVYYCAARSVYGSSFLSYGYWGQGTQVTVSS | high polyreactivity |
| QVQLVESGGGLVQAGGSLRLSCAASGRTFSGNTMGWYRQAPGKERELVAAITGRGGSTYYADSVKGRFTISRDNANNTVYLQMNSLKPEDTAVYYCAALRYTFAGRFDYWGQGTQVTVSS | high polyreactivity |
| QVQLVESGGGLVQAGGSLRLSCAASGRTFSGYAMGWYRQAPGKERELVAAITNRGGTYYADSVKGRFTISRDNAKNTVYVQMNSLKPEDTAVYSCAAYKYYARWVRGYDSWGQGTQVTVSS | high polyreactivity |

| Sequence | polyreactivity (PSR sort gate) |
| --- | --- |
| QVQLVESGGGLVQAGGSLRLSCAASGRTFSGYTMGWYRQAPGKERELVAGISRSGGRTYYADSVKGRFTISRDNAKKTVYLQMNSLKPEDTAVYYCATPYRRLNTWIYDYWGQGTQVTVSS | high polyreactivity |
| QVQLVESGGGLVQAGGSLRLSCAASGRTFSGYVMGWYRQAPGKERELVATINGSGASTYYADSVKGRFTISRDNAKNTVYLQRKSLKPEDSAVYYCAAKRYRPKYEYYYWGQGTQVTVSS | high polyreactivity |
| QVQLVESGGGLVQAGGSLRLSCAASGRTFSHNAMGWYRQAPGKERELVAAISRGGGTNYADSVKGRFTISRDNAKNTVYLQMNSLKPEDTAVYYCAAAGYDSNGRYYYWGQGTQVTVSS | high polyreactivity |
| QVQLVESGGGLVQAGGSLRLSCAASGRTFSHNTMGWYRQAPGKERELVAAITGSGASTYYADSVKGRFTISRDNAKNTVYLQMNSLKPEDTAVYYCAKVSRQSWYEYDSWGQVTQVTVSS | low polyreactivity |
| QVQLVESGGGLVQAGGSLRLSCAASGRTFSINAMGWYRQAPGKERELVAAITWSGGSTYYADSVKGRFTISRDNAKNTVYLQMNSLKPEDTAVYYCNAGLGKFPVKGGRRYRLDYWGQGTQVTVSS | low polyreactivity |
| QVQLVESGGGLVQAGGSLRLSCAASGRTFSIYAMGWYRQAPGKERELVASITNSDGSTYYADSVKGRFTISRDNAKNTVYLQMNSLKPEDTAVYYWNVDSGKYWSLWTYVQYDDYWGQGTQVTVSS | low polyreactivity |
| QVQLVESGGGLVQAGGSLRLSCAASGRTFSKNVMGWYRQAPGKEREFVARISDSGVGTYYADSVKGRFTISRDNAKNTVYLQMNSLKPEDTAVYYCAAAVWYRGWYRYDYWGQGTQVTVSS | low polyreactivity |
| QVQLVESGGGLVQAGGSLRLSCAASGRTFSKNVMGWYRQAPGKEREFVARISDSGVGTYYADSVKGRFTISRDNAKNTVYLQMNSLKPEDTAVYYCDKQYGGRYGYWGQGTQVTVSS | low polyreactivity |
| QVQLVESGGGLVQAGGSLRLSCAASGRTFSKYAMGWYRQAPGKERELVAAITDGRGDTYYADSVKGRFTISRDNEKNTVYLQMNSLKPEDTAVYYCAADPGYSLYEYWGQGTQVTVSS | low polyreactivity |
| QVQLVESGGGLVQAGGSLRLSCAASGRTFSKYAMGWYRQAPGKERELVAAITSGGGTYYADSVKGRFTNSRDNAKNTVYLQMNSLIPEDTGVYSCAVSVTTVSTYDYWGQGTQVTVSS | low polyreactivity |
| QVQLVESGGGLVQAGGSLRLSCAASGRTFSKYTMGWYRQAPGKERELVAVISRSGTRTYYADSVKGRFTISRDNAKNTVYLQMNSLKPEDTAVYYCAAKDERRSFGMGYWGQGPQVTVSS | high polyreactivity |
| QVQLVESGGGLVQAGGSLRLSCAASGRTFSLNTMGWYRQAPGTERELVATISYSGDRTYYADSVKGRFTISRDNAKNTVYLQMNSLKPEETAVYYCAAQYWGRSYAGRYDYWGQGTQVTVSS | high polyreactivity |
| QVQLVESGGGLVQAGGSLRLSCAASGRTFSLYTMGWYRQAPGKERELVAAISSGDSTNYADSVKGRFTISRDNAKNTVYLQMNSLKPEDTAVYYCAKQQDSTSEFSTSDRRQYDYWGQGTQVTVSS | low polyreactivity |
| QVQLVESGGGLVQAGGSLRLSCAASGRTFSNAMGWYRQAPGKERELVADISSGGSTNYADSVKGRFTISRDNAKNTVYLQMNSLKPEDTAVYYCAAVSGSLYGYSDDYWGQGTQVTVSS | low polyreactivity |
| QVQLVESGGGLVQAGGSLRLSCAASGRTFSNYAIGWYRQAPGKEREFVSDISWSVGSTYYADSVKGRFTISRDNAKNTVYLQMNSLKPEDTALYYCATEVPVGGQRHLFKYYYWGQGTQVTVSS | low polyreactivity |
| QVQLVESGGGLVQAGGSLRLSCAASGRTFSNYAMGWYRQAPGKERELVAAISSGGSTNYADSVKGRFTISRDNAKNTVYLLMNSLKPEDTAVYYCAARQRAYYGPGFDYWGQGTQVTVSS | low polyreactivity |
| QVQLVESGGGLVQAGGSLRLSCAASGRTFSNYVMGWYRQAPAKERELVAAITYSGGSTYYADSVKGRFTISRDNATNTVYLQMNSLKPEDTAVYYCARRWGGRGYYYWGQGTQVTVSS | high polyreactivity |
| QVQLVESGGGLVQAGGSLRLSCAASGRTFSPYAMGWYRQAPGKERDLVAAINGGGGTTYYADSVKGRFTISRDNAKNTVYLQMNSLKPEDTAVYYCAAGYNYTSYADLDYWGQGTQVTVSS | low polyreactivity |
| QVQLVESGGGLVQAGGSLRLSCAASGRTFSPYDMGWSRQAPGKERELVAAISFSDTITYYADSVKGRFTISRDNAKNTVYLQMNSLKPEDTAVYYCAADAGGYYEWELYDYWGQGTQVTVSS | low polyreactivity |
| QVQLVESGGGLVQAGGSLRLSCAASGRTFSPYVMGWYRQAPGKETELVATITGGGGSTYYADSVKGRFTISRDNAKNTVFLQMNSLKPEDTAVYYCARGYRYYVYRMGYWGQGTQVTVSS | high polyreactivity |
| QVQLVESGGGLVQAGGSLRLSCAASGRTFSRNAMGWYRQAPGKERELVAAISRSGGSTYYADSVKGRFTISRDNAKNTVYFQLNSLKPEDTAVYYCKADVYSTYYNYNYWGQGTQVTVSS | high polyreactivity |

From the nanobody polyreactivity screen of Harvey et al. (2022)
